B1: NET1 (parent)
chain: IKRTIRVLDVNNQSFREQEEPSNK
B2: DYRK1B (parent)
chain: YQGPGTRRLQEVLGVQTGGPGGRR

Variants of: B1
Test: protein stability index of a GFP-peptide fusion (GPS, HEK-293T) (PSI 1-6); higher = more stable
Settings: c terminus: a fixed tail appended
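Further: lentivirally expressed fusions sorted by FACS into six bins by GFP to DsRed ratio, PSI derived from sequencing read proportions per bin multiplied by bin number.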

| Variant | protein stability index |
| --- | --- |
| NKRTIRVLDVNNQSFREQEEPSNK [I1N] | 3.61 |
| DKRTIRVLDVNNQSFREQEEPSNK [I1D] | 4.58 |
| FKRTIRVLDVNNQSFREQEEPSNK [I1F] | 4.03 |
| AKRTIRVLDVNNQSFREQEEPSNK [I1A] | 3.82 |
| GKRTIRVLDVNNQSFREQEEPSNK [I1G] | 3.67 |
| TKRTIRVLDVNNQSFREQEEPSNK [I1T] | 4.49 |
| WKRTIRVLDVNNQSFREQEEPSNK [I1W] | 3.45 |
| CKRTIRVLDVNNQSFREQEEPSNK [I1C] | 4.76 |
| YKRTIRVLDVNNQSFREQEEPSNK [I1Y] | 4.1 |
| PKRTIRVLDVNNQSFREQEEPSNK [I1P] | 3.94 |
| EKRTIRVLDVNNQSFREQEEPSNK [I1E] | 4.07 |
| MKRTIRVLDVNNQSFREQEEPSNK [I1M] | 3.63 |
| HKRTIRVLDVNNQSFREQEEPSNK [I1H] | 4.81 |
| QKRTIRVLDVNNQSFREQEEPSNK [I1Q] | 3.69 |
| LKRTIRVLDVNNQSFREQEEPSNK [I1L] | 3.27 |
| RKRTIRVLDVNNQSFREQEEPSNK [I1R] | 3.73 |
| SKRTIRVLDVNNQSFREQEEPSNK [I1S] | 3.99 |
| KKRTIRVLDVNNQSFREQEEPSNK [I1K] | 4.14 |
| VKRTIRVLDVNNQSFREQEEPSNK [I1V] | 3.54 |
| IKKTIRVLDVNNQSFREQEEPSNK [R3K] | 3.93 |
| IKFTIRVLDVNNQSFREQEEPSNK [R3F] | 1.75 |
| IKDTIRVLDVNNQSFREQEEPSNK [R3D] | 4.81 |
| IKITIRVLDVNNQSFREQEEPSNK [R3I] | 1.37 |

| Variant | protein stability index |
| --- | --- |
| IKSTIRVLDVNNQSFREQEEPSNK [R3S] | 4.71 |
| IKNTIRVLDVNNQSFREQEEPSNK [R3N] | 4.86 |
| IKLTIRVLDVNNQSFREQEEPSNK [R3L] | 1.9 |
| IKVTIRVLDVNNQSFREQEEPSNK [R3V] | 1.73 |
| IKCTIRVLDVNNQSFREQEEPSNK [R3C] | 2.69 |
| IKWTIRVLDVNNQSFREQEEPSNK [R3W] | 1.49 |
| IKMTIRVLDVNNQSFREQEEPSNK [R3M] | 2.08 |
| IKQTIRVLDVNNQSFREQEEPSNK [R3Q] | 4.44 |
| IKTTIRVLDVNNQSFREQEEPSNK [R3T] | 4.02 |
| IKATIRVLDVNNQSFREQEEPSNK [R3A] | 3.48 |
| IKETIRVLDVNNQSFREQEEPSNK [R3E] | 4.92 |
| IKYTIRVLDVNNQSFREQEEPSNK [R3Y] | 2.19 |
| IKGTIRVLDVNNQSFREQEEPSNK [R3G] | 4.1 |
| IKHTIRVLDVNNQSFREQEEPSNK [R3H] | 4.39 |
| IKPTIRVLDVNNQSFREQEEPSNK [R3P] | 4.57 |
| IKRLIRVLDVNNQSFREQEEPSNK [T4L] | 2.59 |
| IKRCIRVLDVNNQSFREQEEPSNK [T4C] | 3.51 |
| IKRIIRVLDVNNQSFREQEEPSNK [T4I] | 1.79 |
| IKRHIRVLDVNNQSFREQEEPSNK [T4H] | 3.89 |
| IKRNIRVLDVNNQSFREQEEPSNK [T4N] | 4.13 |
| IKRFIRVLDVNNQSFREQEEPSNK [T4F] | 2.88 |
| IKRDIRVLDVNNQSFREQEEPSNK [T4D] | 4.51 |
| IKRGIRVLDVNNQSFREQEEPSNK [T4G] | 3.41 |

| Variant | protein stability index |
| --- | --- |
| IKRKIRVLDVNNQSFREQEEPSNK [T4K] | 3.75 |
| IKREIRVLDVNNQSFREQEEPSNK [T4E] | 4.96 |
| IKRMIRVLDVNNQSFREQEEPSNK [T4M] | 3.3 |
| IDRTIRVLDVNNQSFREQEEPSNK [K2D] | 4.83 |
| IVRTIRVLDVNNQSFREQEEPSNK [K2V] | 3.33 |
| IPRTIRVLDVNNQSFREQEEPSNK [K2P] | 4.47 |
| IWRTIRVLDVNNQSFREQEEPSNK [K2W] | 3.11 |
| ITRTIRVLDVNNQSFREQEEPSNK [K2T] | 4.8 |
| IMRTIRVLDVNNQSFREQEEPSNK [K2M] | 3.75 |
| ISRTIRVLDVNNQSFREQEEPSNK [K2S] | 3.29 |
| IGRTIRVLDVNNQSFREQEEPSNK [K2G] | 4.51 |
| IHRTIRVLDVNNQSFREQEEPSNK [K2H] | 4.01 |
| INRTIRVLDVNNQSFREQEEPSNK [K2N] | 4.34 |
| IIRTIRVLDVNNQSFREQEEPSNK [K2I] | 3.05 |
| ICRTIRVLDVNNQSFREQEEPSNK [K2C] | 4.05 |
| IYRTIRVLDVNNQSFREQEEPSNK [K2Y] | 2.6 |
| IARTIRVLDVNNQSFREQEEPSNK [K2A] | 3.74 |
| IQRTIRVLDVNNQSFREQEEPSNK [K2Q] | 4.63 |
| IRRTIRVLDVNNQSFREQEEPSNK [K2R] | 2.93 |
| IFRTIRVLDVNNQSFREQEEPSNK [K2F] | 3.04 |
| ILRTIRVLDVNNQSFREQEEPSNK [K2L] | 3.72 |
| IERTIRVLDVNNQSFREQEEPSNK [K2E] | 4.01 |

Variants of: B2
Test: as above
Settings: c terminus: a fixed tail appended

| Variant | protein stability index |
| --- | --- |
| YQGPGTRRLQEVLGVQTGGPGVRR [G22V] | 2.95 |
| YQGPGTRRLQEVLGVQTGGPGHRR [G22H] | 3.29 |
| YQGPGTRRLQEVLGVQTGGPGQRR [G22Q] | 3.48 |
| YQGPGTRRLQEVLGVQTGGPGIRR [G22I] | 3.75 |
| YQGPGTRRLQEVLGVQTGGPGCRR [G22C] | 2.87 |
| YQGPGTRRLQEVLGVQTGGPGNRR [G22N] | 3.44 |
| YQGPGTRRLQEVLGVQTGGPGARR [G22A] | 3.13 |
| YQGPGTRRLQEVLGVQTGGPGRRR [G22R] | 2.7 |
| YQGPGTRRLQEVLGVQTGGPGYRR [G22Y] | 2.63 |
| YQGPGTRRLQEVLGVQTGGPGSRR [G22S] | 3.05 |
| YQGPGTRRLQEVLGVQTGGPGLRR [G22L] | 2.94 |
| YQGPGTRRLQEVLGVQTGGPGWRR [G22W] | 3.01 |
| YQGPGTRRLQEVLGVQTGGPGKRR [G22K] | 2.51 |
| YQGPGTRRLQEVLGVQTGGPGTRR [G22T] | 3.35 |
| YQGPGTRRLQEVLGVQTGGPGMRR [G22M] | 2.67 |
| YQGPGTRRLQEVLGVQTGGPGPRR [G22P] | 3.48 |
| YQGPGTRRLQEVLGVQTGGPGFRR [G22F] | 2.17 |
| YQGPGTRRLQEVLGVQTGGPGERR [G22E] | 3.4 |
| YQGPGTRRLQEVLGVQTGGPGDRR [G22D] | 3.39 |
| YQGPGTRRLQEVLGVQTGGPEGRR [G21E] | 3.13 |
| YQGPGTRRLQEVLGVQTGGPFGRR [G21F] | 2.93 |
| YQGPGTRRLQEVLGVQTGGPTGRR [G21T] | 2.98 |
| YQGPGTRRLQEVLGVQTGGPLGRR [G21L] | 3.18 |
| YQGPGTRRLQEVLGVQTGGPRGRR [G21R] | 3.32 |
| YQGPGTRRLQEVLGVQTGGPCGRR [G21C] | 2.72 |
| YQGPGTRRLQEVLGVQTGGPHGRR [G21H] | 3.33 |

— the supplement of paper PMC10567573
